We go through 3 molecules from US20050164945A1, “Endotheliase-1 ligands” (priority 2003, published 2005).

For assay [1], the target named is T1, recombinant endotheliase 1 (human), Q9UL52.
T1 chain: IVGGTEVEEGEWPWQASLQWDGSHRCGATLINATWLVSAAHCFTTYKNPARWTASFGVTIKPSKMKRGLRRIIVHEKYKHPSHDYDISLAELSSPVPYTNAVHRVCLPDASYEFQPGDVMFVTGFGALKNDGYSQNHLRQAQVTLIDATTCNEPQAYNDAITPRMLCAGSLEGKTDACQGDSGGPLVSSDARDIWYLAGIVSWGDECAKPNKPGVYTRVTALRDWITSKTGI
Kind of assay: cell-based or functional assay.

Assay [2] addresses T1, recombinant endotheliase 1 (human), …. The experiment in a line: inhibition of ET1 activity.

With AGNYMCKGYWPDCKMTGT (modifications not checked) [DX-1133], the ET1 IC50 in assay [1] turned out to be 350 nM.

With AGVQHCESRDLPCLIKGT (modifications not checked) [DX-1051], in assay [1], the ET1 IC50 came to 770 nM. The Ki in assay [2] lay within 100 to 1000 nM.

On to AGWPTCRGFWPDCGMMGT (modifications not checked) [DX-1135], for which, in assay [1], the ET1 IC50 came out at 47 nM. Moreover, the Ki in assay [2] lay in the range of 100 to 1000 nM.

Broadly, the Ki is the equilibrium dissociation constant of an inhibitor or competing ligand from its target.
